According to patent US20260016475A1 (VENTANA MEDICAL SYSTEMS, published 2026):
Where no end group is shown, it is not given here.

Assays:
human TAP2 protein = target: T1, human TAP2 protein (human, UniProt Q03519 1-686); test: western blot of lysates of HEK293T cells expressing TAP2
T1 construct: It is an intracellular protein; also called recombinant TAP2
T1 sequence: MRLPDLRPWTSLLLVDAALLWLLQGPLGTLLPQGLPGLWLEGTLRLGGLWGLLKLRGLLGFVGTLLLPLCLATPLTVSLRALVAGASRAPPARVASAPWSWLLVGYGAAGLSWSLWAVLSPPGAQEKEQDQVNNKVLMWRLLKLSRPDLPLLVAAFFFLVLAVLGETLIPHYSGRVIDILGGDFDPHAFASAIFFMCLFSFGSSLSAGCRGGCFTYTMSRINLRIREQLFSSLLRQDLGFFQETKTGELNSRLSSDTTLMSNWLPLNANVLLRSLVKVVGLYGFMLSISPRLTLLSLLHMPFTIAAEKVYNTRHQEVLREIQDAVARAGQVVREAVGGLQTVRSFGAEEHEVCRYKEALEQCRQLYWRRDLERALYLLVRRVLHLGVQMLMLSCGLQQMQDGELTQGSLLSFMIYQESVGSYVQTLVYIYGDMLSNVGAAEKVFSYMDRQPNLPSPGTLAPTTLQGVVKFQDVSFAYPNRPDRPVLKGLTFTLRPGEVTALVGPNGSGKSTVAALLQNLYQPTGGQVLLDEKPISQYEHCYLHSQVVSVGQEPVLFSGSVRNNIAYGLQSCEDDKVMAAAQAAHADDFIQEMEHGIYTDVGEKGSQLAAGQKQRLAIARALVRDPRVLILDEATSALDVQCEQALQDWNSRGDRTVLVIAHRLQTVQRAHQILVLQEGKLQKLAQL
Experimental: Rabbit monoclonal antibody S14H22L21 was applied onto formalin fixed paraffin embedded tissue samples to assess the staining patterns of the antibody by IHC as described in Example 1. Tissue samples included the positive and negative controls listed in Example 1, 8 ccRCC tissues, and a tour of tumor array (see FIGS. 4A-4B and 5A-5C). Western blot analysis was carried out to assess the specificity of S14H22L21. Cell lysates from HEK293T cells, HEK293T cells expressing TAP1, and HEK293T cells expressing TAP2 were analyzed alongside lysates from a negative control cell line (RPMI6226) and two positive control cell lines (HDLM2 and U266B1).

[1] = target: T2, human TAP1 peptide DGKPLPQYEHRYLHR (human, also: conjugated to KLH for immunisation); test: raised against the peptide; ELISA screen of antibody-expressing cells on the immunogenic peptide (Example 1)
T2 construct: Synthetic peptide, conjugated to KLH for immunisation; also called immunogenic peptide
T2 peptide: DGKPLPQYEHRYLHR

human TAP1 protein = target: T3, human TAP1 protein (human, UniProt Q03518 1-748); test: IHC on sections of cell blocks of 293T, 293T-TAP1 and 293T-TAP2 cells
T3 construct: It is an intracellular protein; also called recombinant TAP1
T3 sequence: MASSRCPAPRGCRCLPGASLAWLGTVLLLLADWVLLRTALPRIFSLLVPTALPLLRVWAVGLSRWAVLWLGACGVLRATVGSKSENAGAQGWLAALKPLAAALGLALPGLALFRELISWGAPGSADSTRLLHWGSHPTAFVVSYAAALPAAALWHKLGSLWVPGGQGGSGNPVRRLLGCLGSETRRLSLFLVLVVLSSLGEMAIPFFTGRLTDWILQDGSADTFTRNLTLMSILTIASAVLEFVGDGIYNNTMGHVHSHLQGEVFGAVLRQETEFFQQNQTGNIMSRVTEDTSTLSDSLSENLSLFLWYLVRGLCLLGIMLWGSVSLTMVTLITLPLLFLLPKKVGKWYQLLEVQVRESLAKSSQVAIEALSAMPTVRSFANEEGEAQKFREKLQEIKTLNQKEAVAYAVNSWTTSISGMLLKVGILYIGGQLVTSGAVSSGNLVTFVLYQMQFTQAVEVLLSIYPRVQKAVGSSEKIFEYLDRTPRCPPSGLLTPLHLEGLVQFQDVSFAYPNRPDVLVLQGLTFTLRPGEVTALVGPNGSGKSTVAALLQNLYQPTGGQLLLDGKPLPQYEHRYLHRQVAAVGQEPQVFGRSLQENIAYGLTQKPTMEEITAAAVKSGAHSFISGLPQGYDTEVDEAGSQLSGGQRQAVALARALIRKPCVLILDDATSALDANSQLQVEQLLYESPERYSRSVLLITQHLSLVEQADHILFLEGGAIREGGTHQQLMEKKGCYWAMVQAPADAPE
Source text: anti-TAP1 rabbit monoclonal primary antibodies were directed against the sequence […] (SEQ ID NO: 23), which represents amino acids 625-640 of human TAP1. The peptide was synthesized and covalently conjugated to keyhole limpet haemocyanin (KLH) carrier protein. Rabbits were immunized with KLH-conjugated peptide with complete Freund's adjuvant followed by a series of booster injections of the same immunogen in incomplete Freund's adjuvant. The rabbit that produced the best positive polyclonal antibody by immunohistochemistry (IHC) was chosen for monoclonal development. IHC staining was performed on a BenchMark automated slide stainer at Roche Diagnostics in Tucson, AZ. The staining procedure included deparaffinization, pretreatment using standard Cell Conditioning 1, incubation with antibody (TAP1: 0.925 μg/mL) at 36° C. for 16 min. […] TAP1 was detected by immunohistochemistry (IHC) using OptiView Universal DAB detection kit (Ventana).
Rabbit monoclonal antibody S14H22L21 was applied onto formalin fixed paraffin embedded tissue samples to assess the staining patterns of the antibody by IHC as described in Example 1. […] Cell lysates from HEK293T cells, HEK293T cells expressing TAP1, and HEK293T cells expressing TAP2 were analyzed alongside lysates from a negative control cell line (RPMI6226) and two positive control cell lines (HDLM2 and U266B1).

B1: rabbit anti-human TAP1 monoclonal antibody S14H22L21 (antibody, V domains shown)
VH: QSVKESEGGLFKPTDTLTLTCTVSGFSLSSYEVIWVRQAPGKGLEWIGNIGWRDTTFYANWAKSRSTFTRDTNLNTVTLKMTSLTAADTATYFCARDNGYFGIDYWGPGTLVTVSS
VL: DIVMTQTPASVEAAVGGTVTIKCQASQSISNYLAWYQQKPGQPPKLLIYKASTLASGVPSRFSGSGSGTQFTLTISGVQCDDAATYYCQQDFNYRNIENVFGGGTGVVVK
notes: Recombinant rabbit monoclonal, purified on Protein A; also called clone S14H22L21; TAP1 antibody
binding result (human TAP2 protein): no binding
binding result [1]: binds
binding result (human TAP1 protein): binds
